Test results: the supplement of paper PMC10724198
Where “and” joins values, the source holds several entries; their conditions need not be identical. Identical values can stand only once. ± gives the standard deviation of the averaged measurements.

Experiments:
Saccharomyces cerevisiae [1] = test: protein stability index of tFT-peptide fusion in wild type (PSI (0-1 scale)); higher = more stable (slower turnover); details: genetic background: wild type
Saccharomyces cerevisiae [2] = test: protein stability index of tFT-peptide fusion in deletion strain of DOA10 (PSI (0-1 scale)); higher = more stable (slower turnover)
Procedure: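 MPS profiling in S. cerevisiae of two library types built from selected 12-aa C-degron peptides (IN1, IN2, LN1, LN3, VN2, R1-R5, W1-W3, Atg1 and Rpa12 C-termini): saturation mutagenesis libraries and C-terminal +1 capping libraries (13 aa). Each peptide is fused to the C-terminus of a sfGFP-mCherry timer, after a GGGS linker. Cells are FACS-sorted into 8 mCherry/sfGFP bins and sequenced. PSI runs from 0 (unstable) to 1 (stable), measured once in wild type and in the das1Δ or doa10Δ background.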

Saccharomyces cerevisiae [3] = test: protein stability index of tFT-peptide fusion (C-terminal peptide) (PSI (0-1 scale)); higher = more stable (slower turnover)
Procedure: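 MPS profiling in S. cerevisiae of the tFT-X12 degron library: putative degron peptides plus stable controls, 12 aa, fused to the C-terminus of a sfGFP-mCherry timer. Cells are FACS-sorted into 8 mCherry/sfGFP bins and deep-sequenced. PSI runs from 0 (unstable) to 1 (stable). Backgrounds are wild type, das1Δ and doa10Δ at 30 °C, and wild type, das1Δ, cdc34-1 and cdc53-1 at 37 °C; 2-3 technical replicates each.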

Saccharomyces cerevisiae [4] = test: as above; details: genetic background: wild type; temperature: 30 C
Saccharomyces cerevisiae [5] = test: protein stability index of tFT-peptide fusion in deletion strain of DAS1 (PSI (0-1 scale)); higher = more stable (slower turnover)
[6] = genetic background: cdc34-1, temperature: 37 C
[7] = genetic background: cdc53-1, temperature: 37 C
[8] = genetic background: das1 deletion, temperature: 30 C
[9] = genetic background: das1 deletion, temperature: 37 C
[10] = genetic background: doa10 deletion, temperature: 30 C
[11] = genetic background: wild type, temperature: 30 C
[12] = genetic background: wild type, temperature: 37 C
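Wherever protein stability index of tFT-peptide fusion (C-terminal peptide) is given: PSI is a weighted mean of sequencing reads over stability bins, variants kept only with over 10 reads, mCherry proximal and sfGFP distal, peptide attached via GGGS linker.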
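Wherever protein stability index of tFT-peptide fusion in deletion strain of DAS1 is given: PSI is a weighted mean of each variant's read distribution over the sorted stability bins, computed only for variants having over 10 reads in total.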
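Wherever protein stability index of tFT-peptide fusion in deletion strain of DOA10 is given: PSI per variant is the weighted mean of its sequencing read distribution over the sorted stability bins, counting only variants with over 10 reads summed across bins.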
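Wherever protein stability index of tFT-peptide fusion in wild type is given: PSI derived as read-weighted mean over the 8 sorting bins, only variants exceeding 10 total reads kept, mCherry placed adjacent to the peptide and sfGFP distal.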

Sequence	protein stability index (Saccharomyces cerevisiae [1])	protein stability index (Saccharomyces cerevisiae [2])	other results
ADTLPMCPLLLR	0.56	0.679	
AIELPMCPLLLR	0.221	0.677	
AIMLPMCPLLLR	0.258	0.612	
AITLPACPLLLR	0.291	0.657	
AITLPECPLLLR	0.467	0.677	
AITLPMCHLLLR	0.158	0.663	
AITLPMCPCLLR	0.367	0.651	
AITLPMCPGLLR	0.635	0.673	
AITLPMCPLLHR	0.628	0.716	
AITLPMCPLLLF	0.462	0.512	
AITLPMCPLLLL	0.558	0.625	
AITLPMCPLLLRE	0.488	0.634	
AITLPMCPLLLRH	0.222	0.646	
AITLPMCPLLLRI	0.0995	0.485	
AITLPMCPLLLRR	0.34	0.673	
AITLPMCPLLLRV	0.11	0.334	
AITLPMCPLRLR	0.453	0.666	
AITLPMCPRLLR	0.648	0.675	
AITLPMDPLLLR	0.627	0.681	
AITLPMRPLLLR	0.176	0.637	
AITLPMYPLLLR	0.161	0.651	
AITLPPCPLLLR	0.232	0.673	
AITYPMCPLLLR	0.287	0.655	

Sequence	protein stability index (Saccharomyces cerevisiae [1])	protein stability index (Saccharomyces cerevisiae [2])	other results
AQTLPMCPLLLR	0.394	0.686	
ARWRVGLWRGAS	0.37		protein stability index (Saccharomyces cerevisiae [3]; [6]): 0.66 ± 0.033; protein stability index (Saccharomyces cerevisiae [3]; [7]): 0.7486 ± 0.0018; protein stability index (Saccharomyces cerevisiae [3]; [8]): 0.648 ± 0.021; protein stability index (Saccharomyces cerevisiae [3]; [9]): 0.764 ± 0.011; protein stability index (Saccharomyces cerevisiae [3]; [10]): 0.259 ± 0.0043; protein stability index (Saccharomyces cerevisiae [3]; [11]): 0.3 ± 0.035; protein stability index (Saccharomyces cerevisiae [3]; [12]): 0.612 ± 0.012; protein stability index (Saccharomyces cerevisiae [4]): 0.448 ± 0.028; protein stability index (Saccharomyces cerevisiae [5]): 0.679
CCVSLPILLFFR	0.0702	0.606	
CLVHLPILLFFR	0.0596	0.56	
CLVLLPILLFFR	0.0939	0.442	
CLVSLFILLFFR	0.228	0.433	
CLVSLKILLFFR	0.189	0.282	
CLVSLPICLFFR	0.0838	0.593	
CLVSLPIILFFR	0.0727	0.575	
CLVSLPILAFFR	0.151	0.613	
CLVSLPILLFDR	0.554	0.65	
CLVSLPILLFFP	0.495	0.588	
CLVSLPILLFFY	0.232	0.435	
CLVSLPILLLFR	0.0579	0.579	
CLVSLPILLYFR	0.0564	0.597	
CLVSLPILQFFR	0.623	0.66	
CLVSLPTLLFFR	0.0585	0.663	
CLVSLPVLLFFR	0.0558	0.614	
FSMRWTFRYWVN	0.0664 and 0.0463		protein stability index (Saccharomyces cerevisiae [3]; [6]): 0.301 ± 0.016; protein stability index (Saccharomyces cerevisiae [3]; [7]): 0.545 ± 0.03; protein stability index (Saccharomyces cerevisiae [3]; [8]): 0.531 ± 0.025; protein stability index (Saccharomyces cerevisiae [3]; [9]): 0.573 ± 0.011; protein stability index (Saccharomyces cerevisiae [3]; [10]): 0.0438 ± 0.012; protein stability index (Saccharomyces cerevisiae [3]; [11]): 0.0542 ± 0.0043; protein stability index (Saccharomyces cerevisiae [3]; [12]): 0.0931 ± 0.022; protein stability index (Saccharomyces cerevisiae [4]): 0.112 ± 0.021; protein stability index (Saccharomyces cerevisiae [5]): 0.528 and 0.476
LVVYLSCVACIN	0.0193 and 0.0155		protein stability index (Saccharomyces cerevisiae [3]; [6]): 0.0319 ± 0.015; protein stability index (Saccharomyces cerevisiae [3]; [7]): 0.028 ± 0.0046; protein stability index (Saccharomyces cerevisiae [3]; [8]): 0.0277 ± 0.0056; protein stability index (Saccharomyces cerevisiae [3]; [9]): 0.0456 ± 0.0096; protein stability index (Saccharomyces cerevisiae [3]; [10]): 0.0223 ± 0.0051; protein stability index (Saccharomyces cerevisiae [3]; [11]): 0.0185 ± 0.0067; protein stability index (Saccharomyces cerevisiae [3]; [12]): 0.0515 ± 0.034; protein stability index (Saccharomyces cerevisiae [4]): 0.0328 ± 0.013; protein stability index (Saccharomyces cerevisiae [5]): 0.032 and 0.0307
PSLAASFSRVVG	0.665		protein stability index (Saccharomyces cerevisiae [5]): 0.631
PSLAASFWPVVG	0.656		protein stability index (Saccharomyces cerevisiae [5]): 0.706
PSLAASFWRVAG	0.256		protein stability index (Saccharomyces cerevisiae [5]): 0.671
